Experimental findings from PMC10630626 are described below.

The target of experiment [1] is Palivizumab. Nature of the experiment: SPR; Palivizumab (about 1000 RU) or P^scFvFc variants (about 500 RU) captured on a Protein A chip, AIP^VHH as analyte; Biacore X100, 25 °C, PBS pH 7.4 with 0.05% P20, 30 μl/min, 120 s injection, 500 s dissociation, 1:1 binding model.
The target of experiment [2] is anti-idiotypic nanobody for Palivizumab 3 (AIP3^VHH), soluble.
Experiment [3] has as its target anti-idiotypic nanobody for Palivizumab 2 (AIP2^VHH), soluble.
Experiment [4] addresses anti-idiotypic nanobody for Palivizumab 1 (AIP1^VHH), soluble.
The target is the same in experiment [5]. This is another data set of the same source.
The target of experiment [6] is anti-idiotypic nanobody for Palivizumab 3 (AIP3^VHH), soluble. The source holds these as a separate data set.
Experiment [7] has the same target. The source holds these as a separate data set.
Experiment [8] deals with anti-idiotypic nanobody for Palivizumab 1 (AIP1^VHH), soluble. The source holds these as a separate data set.
The target of experiment [9] is anti-idiotypic nanobody for Palivizumab 2 (AIP2^VHH), soluble. The source holds these as a separate data set.
The target of experiment [10] is Palivizumab. Nature of the experiment: ELISA; competitive: Palivizumab coated, HRP-conjugated anti-idiotypic IgG (AbD23967/HCA262P, 0.2 μg/ml; 1 nM in the legend) co-incubated with 0.1-100 nM soluble AIP1-4^VHH, 1% BSA in PBS, room temperature.
For experiment [11], the target named is Palivizumab single-chain variable fragment, light-heavy order, fused to IgG1 Fc (P^scFvLHFc).
Experiment [12] shares this target. Nature of the experiment: SPR; Palivizumab (about 1000 RU) or P^scFvFc variants (about 500 RU) captured on a Protein A chip, AIP^VHH as analyte; Biacore X100, 25 °C, PBS pH 7.4 with 0.05% P20, 30 μl/min, 120 s injection, 500 s dissociation, 1:1 binding model.
Experiment [13] addresses Palivizumab single-chain variable fragment, heavy-light order, fused to IgG1 Fc (P^scFvHLFc). The description is as above.

B1: anti-idiotypic nanobody for Palivizumab 4 (AIP4^VHH), soluble (VHH)
VHH: DVQLQESGGGLVQAGGSLRLSCVASGRAFSRYDMGWFRQAPGKEREFVAQISWRGGSATSYADTVKGRFTIARDNAKNTVYLQMNSLKPEDTAVYYCNARTPTLSSWGQGTQVTVSS
B1 had a Kd with Palivizumab [1] of 3.14 nM.

B2: Palivizumab (antibody, V domains shown)
VH: QVTLRESGPALVKPTQTLTLTCTFSGFSLSTSGMSVGWIRQPPGKALEWLADIWWDDKKDYNPSLKSRLTISKDTSKNQVVLKVTNMDPADTATYYCARSMITNWYFDVWGAGTTVTVSS
VL: DIQMTQSPSTLSASVGDRVTITCKCQLSVGYMHWYQQKPGKAPKLLIYDTSKLASGVPSRFSGSGSGTEFTLTISSLQPDDFATYYCFQGSGYPFTFGGGTKLEIK
In experiment [2], B2 came in with an EC50 of proliferation of Ba/F3-gp130-AIP3^VHHgp130 cells, Palivizumab cross-linked with a 6-fold molar excess of hFc-mAb of 2.71 nM and a proliferation of Ba/F3-gp130 cells expressing AIP3^VHHgp130, Palivizumab 0.033-66 nM, percent of the maximal proliferation with HIL-6 of 20%. The EC50 of proliferation of Ba/F3-gp130-AIP2^VHHgp130 cells, Palivizumab cross-linked with a 6-fold molar excess of hFc-mAb in experiment [3] was determined as 48.8 nM. Also, in experiment [4], the EC50 of proliferation of Ba/F3-gp130-AIP1^VHHgp130 cells, Palivizumab cross-linked with a 6-fold molar excess of hFc-mAb is 215 nM. Besides, in experiment [5], the IC50 of Palivizumab (0.49-1000 nM) for proliferation of Ba/F3-gp130-AIP1^VHHgp130 cells induced by 2 nM P^scFvLHFc; blocks P^scFvLHFc with AIP1^VHHgp130 was 8.28 nM and the molar excess of Palivizumab over P^scFvLHFc (2 nM) for complete suppression of STAT3 phosphorylation in Ba/F3-gp130-AIP1^VHHgp130 cells (fold molar excess) is more than 8.

B3: Palivizumab single-chain variable fragment, light-heavy order, fused to IgG1 Fc (P^scFvLHFc) (Fc fusion)
VH: QVTLRESGPALVKPTQTLTLTCTFSGFSLSTSGMSVGWIRQPPGKALEWLADIWWDDKKDYNPSLKSRLTISKDTSKNQVVLKVTNMDPADTATYYCARSMITNWYFDVWGAGTTVTVSS
VL: DIQMTQSPSTLSASVGDRVTITCKCQLSVGYMHWYQQKPGKAPKLLIYDTSKLASGVPSRFSGSGSGTEFTLTISSLQPDDFATYYCFQGSGYPFTFGGGTKLEIK
As to B3, in experiment [6], the caspase 3/7 activity in Ba/F3-gp130-AIP3^VHHFas cells, dimeric P^scFvLHFc 0.1-100 nM, percent of the activity with cross-linked 2× P^scFvLHFc is less than 50%. This molecule yielded an EC50 of proliferation of Ba/F3-gp130 cells expressing AIP3^VHHgp130, P^scFvLHFc 0.00053-93.5 nM (Fig. 6B) in experiment [7] of 6.61 nM. In [8], this molecule came in with an EC50 of proliferation of Ba/F3-gp130-AIP1^VHHgp130 cells, P^scFvLHFc 0.00563-5.77 nM (Fig. 6H) of 0.38 nM; an EC50 of proliferation of Ba/F3-gp130 cells expressing AIP1^VHHgp130, P^scFvLHFc 0.00053-93.5 nM (Fig. 6B) of 0.21 nM; a lowest concentration that induced STAT3 phosphorylation in Ba/F3-gp130-AIP1^VHHgp130 cells (0.19 to 6 nM tested, Fig. 6I) of 1.5 nM.

B4: Palivizumab single-chain variable fragment, heavy-light order, fused to IgG1 Fc (P^scFvHLFc) (Fc fusion)
VH: QVTLRESGPALVKPTQTLTLTCTFSGFSLSTSGMSVGWIRQPPGKALEWLADIWWDDKKDYNPSLKSRLTISKDTSKNQVVLKVTNMDPADTATYYCARSMITNWYFDVWGAGTTVTVSS
VL: DIQMTQSPSTLSASVGDRVTITCKCQLSVGYMHWYQQKPGKAPKLLIYDTSKLASGVPSRFSGSGSGTEFTLTISSLQPDDFATYYCFQGSGYPFTFGGGTKLEIK
Regarding B4, the EC50 of proliferation of Ba/F3-gp130-AIP3^VHHgp130 cells, P^scFvHLFc 0.00056-100 nM (Fig. 6E) in [7] is 9.1 nM. This molecule gave an EC50 of proliferation of Ba/F3-gp130-AIP2^VHHgp130 cells, P^scFvHLFc 0.00056-100 nM (Fig. 6E) in [9] of 0.7 nM. In addition, in experiment [8], the EC50 of proliferation of Ba/F3-gp130-AIP1^VHHgp130 cells, P^scFvHLFc 0.00056-100 nM (Fig. 6E) turned out to be 0.4 nM; the EC50 of proliferation of Ba/F3-gp130-AIP1^VHHgp130 cells, P^scFvHLFc 0.00563-5.77 nM (Fig. 6H) was determined as 0.5 nM; the lowest concentration that induced STAT3 phosphorylation in Ba/F3-gp130-AIP1^VHHgp130 cells (0.19 to 6 nM tested, Fig. 6I) is 0.19 nM.

B5: anti-idiotypic nanobody for Palivizumab 3 (AIP3^VHH), soluble (VHH)
VHH: DVQLQESGGGLVQPGGSLRLSCVASGRTWSIYAMGWFRQAPGKEREFVTAISISRSESVTHYAESVTGRFTISRDNAKNTLHLQMNSLKPEDTAVYFCAADRRSIDPHHTIDYWGQGTQVTVSS
With B5, the half-inhibitory concentration (IC50) with Palivizumab [10] was 48.5 nM. In the experiment with Palivizumab [1], this molecule came in with a Kd of 1.11 nM. The molecule also registered an IC50 of soluble AIP3^VHH (0.49-1000 nM) for proliferation of Ba/F3-gp130-AIP1^VHHgp130 cells induced by 2 nM P^scFvLHFc; blocks P^scFvLHFc with AIP1^VHHgp130 in experiment [11] of 364 nM.

B6: anti-idiotypic nanobody for Palivizumab 2 (AIP2^VHH), soluble (VHH)
VHH: DVQLQESGGGLVQAGGSLRLSCAASESLFRLNAMGWYRQAPGKQRELVAGITTSGDAVYADSVKGRFTISRDSAKNTVYLQTNNLKPEDTAVYYCNVRPRAGTWENARIGVWGQGTQVTVSS
Turning to B6, the IC50 with Palivizumab [10] worked out at 4.4 nM. For the same molecule, the equilibrium dissociation constant (Kd) with Palivizumab [1] stood at 2.16 nM. The molecule further displayed an IC50 of soluble AIP2^VHH (0.49-1000 nM) for proliferation of Ba/F3-gp130-AIP1^VHHgp130 cells induced by 2 nM P^scFvLHFc; blocks P^scFvLHFc with AIP1^VHHgp130 in [11] of 83.1 nM.

B7: anti-idiotypic nanobody for Palivizumab 1 (AIP1^VHH), soluble (VHH)
VHH: DVQLQESGGGLVQAGGSLRLSCVASGLTFRYDMGWFRQAPGKEREFVAQITWRGGSATYYADSVKGRFTIARDIAKNAVYLQMNSLKPEDTAVYYCAAAYGSAGYRPDEYDSWGQGTQVTVSS
For the molecule B7, the IC50 in the experiment with Palivizumab [10] stood at 1.76 nM. Moreover, the dissociation constant Kd in experiment [12] amounted to 9.8 pM. This molecule displayed an equilibrium dissociation constant (Kd) in experiment [13] of 0.0272 nM. In the experiment with Palivizumab [1], this molecule showed a Kd of 0.026 nM, an off-rate (koff) of 5.9e-05 s⁻¹ and a kon of 2.3e+06 M⁻¹ s⁻¹. Besides, the IC50 of soluble AIP1^VHH (0.49-1000 nM) for proliferation of Ba/F3-gp130-AIP1^VHHgp130 cells induced by 2 nM P^scFvLHFc; blocks P^scFvLHFc with AIP1^VHHgp130 in [11] worked out at 2.79 nM.
